T1: PUF4 RNA-binding domain (Saccharomyces cerevisiae, UniProt P25339 537-888)
T1 sequence: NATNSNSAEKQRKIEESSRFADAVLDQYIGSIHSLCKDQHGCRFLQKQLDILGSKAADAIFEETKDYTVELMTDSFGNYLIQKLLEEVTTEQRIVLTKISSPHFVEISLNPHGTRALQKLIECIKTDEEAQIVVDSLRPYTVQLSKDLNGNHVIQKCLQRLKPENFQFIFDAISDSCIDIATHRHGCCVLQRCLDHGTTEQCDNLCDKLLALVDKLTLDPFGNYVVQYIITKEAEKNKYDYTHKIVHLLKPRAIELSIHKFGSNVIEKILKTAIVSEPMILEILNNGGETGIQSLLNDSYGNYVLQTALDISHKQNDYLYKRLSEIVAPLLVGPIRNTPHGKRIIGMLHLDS

The Kd is the equilibrium constant for the complex coming apart.

The target in the series is T1, PUF4 RNA-binding domain. Briefly: Mg; RNA-MaP; 20 mM Na-HEPES pH 7.4, 30 mM KOAc, 0.75 mM MgCl2, 0.1% Tween-20, 5% glycerol, 0.1 mg/mL BSA, 2 mM DTT; 25 C; 0.0125-409.6 nM protein. The note with it: tags: N-His6-TEV cleaved; C-SNAP kept, Cy3B-labelled; label: tethered on chip by stalled RNA polymerase.
In the case of UCUCUUUGUAAGUAUAUCUCUU (ssRNA) [Ic_S1_P5E.1_K5.1_C5.1_H5.1_A5.1_[T5A]_[T6G]_[A7T]_F5.1_[T8A]_T5.1], the Kd amounted to 95 nM.
With UCUCUUUGUAAAUCACUCUCUU (ssRNA) [Ic_S1_P5E.1_K5.1_C5.1_H5.1_A5.1_[T5A]_[T6A]_[A7T]_F5.1_[T8C]_[T9A]_[A10C]_T5.1], the Kd is 63.1 nM.
The result for UCUCUUUGUAACGGUCUCUCUU (ssRNA) [Ic_S1_P5E.1_K5.1_C5.1_H5.1_A5.1_[T5A]_[T6C]_[A7G]_F5.1_[T8G]_[A10C]_T5.1] reads more than 2300 nM; that for UCUCUUUGUACCAUCUUCUCUU (ssRNA) [Ic_S1_P5E.1_K5.1_C5.1_H5.1_A5.1_[T5C]_[T6C]_F5.1_[T9C]_[A10T]_T5.1], 28 nM; that for UCUCUUUGUAAACUAAUCUCUU (ssRNA) [Ic_S1_P5E.1_K5.1_C5.1_H5.1_A5.1_[T5A]_[T6A]_[A7C]_F5.1_[T9A]_T5.1], 3.01 nM.
The result for UCUCUUAGCAUAUAUCUCUU (ssRNA) [Ib_S1_P3E.1_K3.1_C3.1_H3.1_[T1A]_[T3C]_A3.1_F3.1_T3.1] reads more than 2300 nM; that for UCUCUUUGUACGGUCGUCUCUU (ssRNA) [Ic_S1_P5E.1_K5.1_C5.1_H5.1_A5.1_[T5C]_[T6G]_[A7G]_F5.1_[T9C]_[A10G]_T5.1], more than 2300 nM.
Next, UCUCUUUGUAUAUCAUCUCUU (ssRNA) [Ic_S1_P4E.1_K4.1_C4.1_H4.1_A4.1_F4.1_[T8C]_T4.1]: 8.57 nM; UCUCUUUGUAAAACCGUCUCUU (ssRNA) [Ic_S1_P5E.1_K5.1_C5.1_H5.1_A5.1_[T5A]_[T6A]_F5.1_[T8C]_[T9C]_[A10G]_T5.1]: 1190 nM; UCUCUUUGUAAACGCCUCUCUU (ssRNA) [Ic_S1_P5E.1_K5.1_C5.1_H5.1_A5.1_[T5A]_[T6A]_[A7C]_F5.1_[T8G]_[T9C]_[A10C]_T5.1]: 1060 nM.
For UCUCUUGUUAUAUAUCUCUU (ssRNA) [Ib_S1_P3E.1_K3.1_C3.1_H3.1_[T1G]_[G2T]_A3.1_F3.1_T3.1], the dissociation constant Kd amounted to 47 nM.
The result for UCUCUUUGUAAGUUUGUCUCUU (ssRNA) [Ic_S1_P5E.1_K5.1_C5.1_H5.1_A5.1_[T5A]_[T6G]_[A7T]_F5.1_[A10G]_T5.1] reads 697 nM; that for UCUCUUUGUACGUCAUUCUCUU (ssRNA) [Ic_S1_P5E.1_K5.1_C5.1_H5.1_A5.1_[T5C]_[T6G]_[A7T]_F5.1_[T8C]_[T9A]_[A10T]_T5.1], 96.5 nM; that for UCUCUUUGUACAGCAUUCUCUU (ssRNA) [Ic_S1_P5E.1_K5.1_C5.1_H5.1_A5.1_[T5C]_[T6A]_[A7G]_F5.1_[T8C]_[T9A]_[A10T]_T5.1], 23.4 nM.
Turning to UCUCUUUGUAUUGCCAUCUCUU (ssRNA) [Ic_S1_P5E.1_K5.1_C5.1_H5.1_A5.1_[A7G]_F5.1_[T8C]_[T9C]_T5.1], the Kd is 955 nM.
The result for UCUCUUUGUACCAGCUUCUCUU (ssRNA) [Ic_S1_P5E.1_K5.1_C5.1_H5.1_A5.1_[T5C]_[T6C]_F5.1_[T8G]_[T9C]_[A10T]_T5.1] reads 747 nM.
Next, UCUCUUUGUAUUCCCAUCUCUU (ssRNA) [Ic_S1_P5E.1_K5.1_C5.1_H5.1_A5.1_[A7C]_F5.1_[T8C]_[T9C]_T5.1]: 587 nM; UCUCUUUGUAUUUGCGUCUCUU (ssRNA) [Ic_S1_P5E.1_K5.1_C5.1_H5.1_A5.1_[A7T]_F5.1_[T8G]_[T9C]_[A10G]_T5.1]: 659 nM; UCUCUUUGUAAGCCAUUCUCUU (ssRNA) [Ic_S1_P5E.1_K5.1_C5.1_H5.1_A5.1_[T5A]_[T6G]_[A7C]_F5.1_[T8C]_[T9A]_[A10T]_T5.1]: 317 nM.
The result for UCUCUUGGUCUAUAUCUCUU (ssRNA) [Ib_S1_P3E.1_K3.1_C3.1_H3.1_[T1G]_[A4C]_A3.1_F3.1_T3.1] reads more than 2300 nM; that for UCUCUUUGUAAGCUGCUCUCUU (ssRNA) [Ic_S1_P5E.1_K5.1_C5.1_H5.1_A5.1_[T5A]_[T6G]_[A7C]_F5.1_[T9G]_[A10C]_T5.1], 604 nM; that for UCUCUUUGUACGAACCUCUCUU (ssRNA) [Ic_S1_P5E.1_K5.1_C5.1_H5.1_A5.1_[T5C]_[T6G]_F5.1_[T8A]_[T9C]_[A10C]_T5.1], 1700 nM.
UCUCUUUGUAUGGCAUUCUCUU (ssRNA) [Ic_S1_P5E.1_K5.1_C5.1_H5.1_A5.1_[T6G]_[A7G]_F5.1_[T8C]_[T9A]_[A10T]_T5.1]: the affinity, expressed as Kd, was 1040 nM.
UCUCUUUGUACUUCAUUCUCUU (ssRNA) [Ic_S1_P5E.1_K5.1_C5.1_H5.1_A5.1_[T5C]_[A7T]_F5.1_[T8C]_[T9A]_[A10T]_T5.1] registered a Kd of 75.9 nM.
Next, UCUCUUUGUAAUCCUUUCUCUU (ssRNA) [Ic_S1_P5E.1_K5.1_C5.1_H5.1_A5.1_[T5A]_[A7C]_F5.1_[T8C]_[A10T]_T5.1]: 697 nM; UCUCUUUGUAACAGCCUCUCUU (ssRNA) [Ic_S1_P5E.1_K5.1_C5.1_H5.1_A5.1_[T5A]_[T6C]_F5.1_[T8G]_[T9C]_[A10C]_T5.1]: 1140 nM.
Next, UCUCUUUGUAUGGUAAUCUCUU (ssRNA) [Ic_S1_P5E.1_K5.1_C5.1_H5.1_A5.1_[T6G]_[A7G]_F5.1_[T9A]_T5.1]: 32.1 nM; UCUCUUUGUAUAUAAAUCUCUU (ssRNA) [Ic_S1_P5E.1_K5.1_C5.1_H5.1_A5.1_[T6A]_[A7T]_F5.1_[T8A]_[T9A]_T5.1]: 8.13 nM; UCUCUUUGUAUCUAUCUCUCUU (ssRNA) [Ic_S1_P5E.1_K5.1_C5.1_H5.1_A5.1_[T6C]_[A7T]_F5.1_[T8A]_[A10C]_T5.1]: 41.5 nM.

The values are drawn from paper PMC9352680, “A comprehensive thermodynamic model for RNA binding by the Saccharomyces cerevisiae Pumilio protein PUF4”.
